Bounds are passed on as bounds.

For assay [1], the target named is PTH2 receptor mutant Tyr-318-Ile (human) (UniProt P49190).
The target of assay [2] is PTH2 receptor mutant Tyr-318-Phe (human) (UniProt P49190).
Assay [3] addresses parathyroid hormone 2 receptor (PTH2), wild type, human (human) (UniProt P49190).
Assay [4] concerns the target PTH2 receptor mutant Tyr-318-Ile (human) (UniProt P49190). Nature of the assay: radioligand binding; whole-cell competition: HEK-293 cells expressing the receptor in poly-D-lysine coated 24-well plates; 50 pM ^125I-rPTH(1–34); unlabelled ligand 10 μM–10 pM; room temperature, 2 h; Whole Cell Binding Buffer pH 7.7 with 5% horse serum and 0.5% foetal calf serum; IC50 from a single site model with the Hill co-efficient constrained to 1.

The target in assay [5] is PTH2 receptor mutant Tyr-318-Phe (human) (UniProt P49190). The description is as above.
In assay [6] the target is parathyroid hormone 2 receptor (PTH2), wild type, human (human) (UniProt P49190). Described as above.
Chain of parathyroid hormone 2 receptor (PTH2), wild type, human (human) (P49190 25-550): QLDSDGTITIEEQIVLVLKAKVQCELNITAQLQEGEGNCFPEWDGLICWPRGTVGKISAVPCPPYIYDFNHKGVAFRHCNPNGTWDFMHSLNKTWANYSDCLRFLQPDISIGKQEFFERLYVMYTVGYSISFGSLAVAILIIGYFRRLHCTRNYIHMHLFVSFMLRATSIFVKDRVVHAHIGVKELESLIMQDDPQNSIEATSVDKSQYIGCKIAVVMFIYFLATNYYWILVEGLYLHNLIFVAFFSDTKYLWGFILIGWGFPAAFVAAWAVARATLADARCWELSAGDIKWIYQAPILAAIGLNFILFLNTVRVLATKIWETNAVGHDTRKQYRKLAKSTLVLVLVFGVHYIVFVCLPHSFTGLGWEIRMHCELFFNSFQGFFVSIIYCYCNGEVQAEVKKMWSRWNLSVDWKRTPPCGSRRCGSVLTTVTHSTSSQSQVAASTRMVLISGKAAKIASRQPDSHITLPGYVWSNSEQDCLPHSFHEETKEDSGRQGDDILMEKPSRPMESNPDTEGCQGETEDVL
Assay [7] deals with PTH2. To be noted: cited from earlier work. The text has this:
Despite the success of the chimeric and single residue-swap studies of PTH1 and PTH2 described above, [14], [15], [20], which identified PTH/PTHrP binding and selectivity determinants at PTH1 and PTH2, the nature of the TIP39 selection has not been explored to the same degree.

For assay [8], the system named is PTH1. Kind of assay: LANCE cAMP screen, wild type PTH1. To be noted: 1 μM PTH(1–34); HEK-293 stable cells, 10,000 cells/well, 30 min stimulation. It is filed as cell-based, human.
Experimental: (§1) The full-length cDNA of human PTH1 and PTH2 (gift from GlaxoSmithKline) in pcDNA3 (Invitrogen, Paisley, UK) were used to express wild type receptors as described previously [14]. […] These various pcDNA3 constructs were used to express the wild type human PTH1 and PTH2 receptors, and mutant PTH2 receptors, in Human Embryonic Kidney (HEK)-293 cells.
(§2) The HEK-293 cells were cultured in Dulbecco’s Modified Eagle’s Medium (DMEM, from Sigma, Poole, UK) supplemented with 10% foetal calf serum (Lonza Wokinham Ltd., Wokingham, UK) and containing 2 mM L-glutamine, 100 U/ml penicillin and 100 μg/ml streptomycin (Invitrogen, Paisley, UK). Cells were transfected with pcDNA3 containing the cDNA encoding the receptors, using the SuperFect® Transfection Reagent (Qiagen Ltd., Crawley, UK.) and stable clones were selected with G418 antibiotic (Invitrogen, Paisley, UK) as follows. Cells were seeded into a 25 cm^2 flask containing 10 ml of media and transfected when they reached 50–80% confluence. To do this, 20 μl of SuperFect® was mixed with a DNA solution consisting of 5 μg plasmid DNA in 150 μl DMEM. […]
(§3) The LANCE cAMP kit (PerkinElmer Life and Analytical Sciences) was used alongside the manufacturer’s instructions with some minor adaptations as described. […] The acceptor fluorescence signal was read at 665 nm on a ViewLux instrument (Perkin Elmer).
The subject of assay [9] is PTH2R (V146 M). Kind of assay: LANCE cAMP screen, mutant PTH2. Format: cell-based, human. The following applies: 1 μM PTH(1–34), 10,000 cells/well, 30 min.
Experimental: as §1, §2, §3
Assay [10] concerns PTH2R (V380 M). Nature of the assay: LANCE cAMP screen, mutant PTH2. To be noted: 1 μM PTH(1–34), 10,000 cells/well, 30 min. Format: cell-based, human.
Experimental: (§4) These various pcDNA3 constructs were used to express the wild type human PTH1 and PTH2 receptors, and mutant PTH2 receptors, in Human Embryonic Kidney (HEK)-293 cells.
(§5) The HEK-293 cells were cultured in Dulbecco’s Modified Eagle’s Medium (DMEM, from Sigma, Poole, UK) supplemented with 10% foetal calf serum (Lonza Wokinham Ltd., Wokingham, UK) and containing 2 mM L-glutamine, 100 U/ml penicillin and 100 μg/ml streptomycin (Invitrogen, Paisley, UK). Cells were transfected with pcDNA3 containing the cDNA encoding the receptors, using the SuperFect® Transfection Reagent (Qiagen Ltd., Crawley, UK.) and stable clones were selected with G418 antibiotic (Invitrogen, Paisley, UK) as follows. Cells were seeded into a 25 cm^2 flask containing 10 ml of media and transfected when they reached 50–80% confluence. To do this, 20 μl of SuperFect® was mixed with a DNA solution consisting of 5 μg plasmid DNA in 150 μl DMEM. The DNA was incubated with the reagent for 10 min at room temperature after which 1 ml of media was then added and mixed gently. […]
as §3
Assay [11] relates to PTH2R (T192V). Nature of the assay: LANCE cAMP screen, mutant PTH2. The following applies: 1 μM PTH(1–34), 10,000 cells/well, 30 min.
Experimental: as §1, §2, §3
The test system of assay [12] is PTH2R (V241T). Nature of the assay: LANCE cAMP screen, mutant PTH2. The following applies: 1 μM PTH(1–34), 10,000 cells/well, 30 min.
Experimental: as §1, §2, §3
Assay [13] relates to PTH2R (M242F). Nature of the assay: LANCE cAMP screen, mutant PTH2. To be noted: 1 μM PTH(1–34), 10,000 cells/well, 30 min.
Experimental: as §1, §2, §3
Assay [14] relates to PTH2R (I244L). Kind of assay: LANCE cAMP screen, mutant PTH2. To be noted: 1 μM PTH(1–34), 10,000 cells/well, 30 min.
Experimental: as §1, §2, §3
Assay [15] relates to PTH2R (A293V). Kind of assay: LANCE cAMP screen, mutant PTH2. To be noted: 1 μM PTH(1–34), 10,000 cells/well, 30 min.
Experimental: as §1, §2, §3
The test system of assay [16] is PTH2R (A295V). Kind of assay: LANCE cAMP screen, mutant PTH2. The following applies: 1 μM PTH(1–34), 10,000 cells/well, 30 min.
Experimental: as §1, §2, §3
Assay [17] relates to PTH2R (V296S). Nature of the assay: LANCE cAMP screen, mutant PTH2. The following applies: 1 μM PTH(1–34), 10,000 cells/well, 30 min.
Experimental: as §4, §5, §3
Assay [18] deals with PTH2R (A297V). Kind of assay: LANCE cAMP screen, mutant PTH2. To be noted: 1 μM PTH(1–34), 10,000 cells/well, 30 min.
Experimental: as §4, §5, §3
For assay [19], the system named is PTH2R (Y318I). Nature of the assay: LANCE cAMP screen, mutant PTH2. The following applies: 1 μM PTH(1–34), 10,000 cells/well, 30 min.
Experimental: as §4, §5, §3
The subject of assay [20] is PTH2R (A320V). Nature of the assay: LANCE cAMP screen, mutant PTH2. The following applies: 1 μM PTH(1–34), 10,000 cells/well, 30 min.
Experimental: as §4, §5, §3
For assay [21], the system named is PTH2R (G327V). Nature of the assay: LANCE cAMP screen, mutant PTH2. To be noted: 1 μM PTH(1–34), 10,000 cells/well, 30 min.
Experimental: as §4, §5, §3
Assay [22] relates to PTH2R (C381A). Nature of the assay: LANCE cAMP screen, mutant PTH2. To be noted: 1 μM PTH(1–34), 10,000 cells/well, 30 min.
Experimental: as §4, §5, §3
In assay [23] the test system is PTH2R (L382T). Kind of assay: LANCE cAMP screen, mutant PTH2. To be noted: 1 μM PTH(1–34), 10,000 cells/well, 30 min.
Experimental: as §4, §5, §3
Assay [24] has as its system PTH2R (C397Y). Kind of assay: LANCE cAMP screen, mutant PTH2. To be noted: 1 μM PTH(1–34), 10,000 cells/well, 30 min.
Experimental: as §4, §5, §3
In assay [25] the test system is PTH2R (L399M). Kind of assay: LANCE cAMP screen, mutant PTH2. To be noted: 1 μM PTH(1–34), 10,000 cells/well, 30 min.
Experimental: as §4, §5, §3

Chain of PTH2 receptor mutant Tyr-318-Phe (human) (P49190 25-550 Y318F): as the sequence (P49190 25-550) above, with Y294F counted along it
Chain of PTH2 receptor mutant Tyr-318-Ile (human) (P49190 25-550 Y318I): as the sequence (P49190 25-550) above, with Y294I counted along it

As to TIP (5–39) (peptide), the cAMP accumulation (LANCE), EC50; 2500 cells/well, 10 min is over 1000 nM in assay [1], 912 nM in assay [2] and 17 nM in [3]. Moreover, the cAMP accumulation (LANCE), pEC50; 2500 cells/well, 10 min in [1] was under 6; in assay [2] it was 6.04; in [3], 7.77. In addition, the IC50 in assay [4] is 7240 nM; in assay [5] it was 3240 nM; in assay [6] it was 871 nM. Further, the pIC50 in assay [4] amounted to 5.14; in [5] it was 5.49; in assay [6], 6.06.
As for “TIP (7–39): TIP39 truncated by the first 6 residues, literature peptide (ref 21) (DAAFRERARLLAALERRHWLNSYMHKLLVLDAP; Tuberoinfundibular peptide of 39 residues; UniProt Q96A98 68-100, looked up, fragment)”, in [7], the “efficacy at PTH2” value was “no efficacy”.
With TIP (3–39) (peptide), the results for the cAMP accumulation (LANCE), EC50; 2500 cells/well, 10 min in assay [1], in [2] and in [3] were 50.1 nM, 9.55 nM and 0.22 nM, respectively. In addition, the cAMP accumulation (LANCE), pEC50; 2500 cells/well, 10 min in assay [1] was 7.3; in assay [2] it was 8.02; in [3], 9.66. Also, the concentration for half-maximal inhibition (IC50) in assay [4] came out at 1260 nM; in assay [5], 479 nM; in assay [6], 105 nM. Also, the pIC50 in assay [4] was 5.9; in assay [5], 6.32; in assay [6], 6.98.
With TIP (4–39) (peptide), the cAMP accumulation (LANCE), EC50; 2500 cells/well, 10 min in assay [1] is 89.1 nM; in assay [2] it was 13.2 nM; in assay [3], 0.29 nM. The cAMP accumulation (LANCE), pEC50; 2500 cells/well, 10 min in assay [1] was found to be 7.05; in assay [2] it was 7.88; in assay [3], 9.54. Moreover, the IC50 came to 1480 nM in assay [4], 603 nM in assay [5] and 158 nM in assay [6]. Moreover, the pIC50 in assay [4] amounted to 5.83; in assay [5] it was 6.22; in assay [6], 6.8.
TIP (2–39) (peptide): the cAMP accumulation (LANCE), EC50; 2500 cells/well, 10 min amounted to 41.7 nM in assay [1], 4.79 nM in assay [2] and 0.12 nM in assay [3]. The cAMP accumulation (LANCE), pEC50; 2500 cells/well, 10 min in [1] was 7.38; in assay [2], 8.32; in [3], 9.92. The IC50 in assay [4] worked out at 1480 nM; in assay [5], 417 nM; in assay [6], 58.9 nM. The pIC50 stood at 5.83 in assay [4], 6.38 in assay [5] and 7.23 in assay [6].
With TIP (6–39) (peptide), the values for the cAMP accumulation (LANCE), EC50; 2500 cells/well, 10 min in [2] and in assay [3] were over 1000 nM and 123 nM, respectively. For the same compound, the cAMP accumulation (LANCE), pEC50; 2500 cells/well, 10 min in assay [2] is under 6; in [3] it was 6.91. Moreover, the IC50 in assay [4] stood at 8710 nM; in assay [5], 4270 nM; in assay [6] it was 1050 nM. Also, the figures for the negative-log IC50 (pIC50) in [4], in [5] and in [6] were 5.06, 5.37 and 5.98, respectively.
Regarding `CC[C@H](C)[C@H](NC(=O)[C@H](CCC(=O)O)NC(=O)[C@H](CO)NC(=O)[C@@H](NC(=O)[C@@H](N)CO)C(C)C)C(=O)N[C@@H](CCC(N)=O)C(=O)N[C@@H](CC(C)C)C(=O)N[C@@H](CCSC)C(=O)N[C@@H](Cc1c[nH]cn1)C(=O)N[C@@H](CC(N)=O)C(=O)N[C@@H](CC(C)C)C(=O)NCC(=O)N[C@@H](CCCCN)C(=O)N[C@@H](Cc1c[nH]cn1)C(=O)N[C@@H](CC(C)C)C(=O)N[C@@H](CC(N)=O)C(=O)N[C@@H](CO)C(=O)N[C@@H](CCSC)C(=O)N[C@@H](CCC(=O)O)C(=O)N[C@@H](CCCNC(=N)N)C(=O)N[C@H](C(=O)N[C@@H](CCC(=O)O)C(=O)N[C@@H](Cc1c[nH]c2ccccc12)C(=O)N[C@@H](CC(C)C)C(=O)N[C@@H](CCCNC(=N)N)C(=O)N[C@@H](CCCCN)C(=O)N[C@@H](CCCCN)C(=O)N[C@@H](CC(C)C)C(=O)N[C@@H](CCC(N)=O)C(=O)N[C@@H](CC(=O)O)C(=O)N[C@H](C(=O)N[C@@H](Cc1c[nH]cn1)C(=O)N[C@@H](CC(N)=O)C(=O)N[C@@H](Cc1ccccc1)C(=O)O)C(C)C)C(C)C` [PTH(1–34)], the “% maximum PTH(1–34) response” value in [8] stood at 99 ± 2%; in [9], 102 ± 1%; in assay [10], 102 ± 1%; in assay [11], 102 ± 2%; in assay [12], 100 ± 1%; in [13] it was 98 ± 2%. Further, the “% maximum PTH(1–34) response” value in [14] turned out to be 100 ± 3%; in assay [15], 99 ± 2%; in assay [16], 99 ± 2%; in assay [17], 101 ± 2%; in [18], 100 ± 2%; in assay [19], 99 ± 1%. Moreover, the “% maximum PTH(1–34) response” value in assay [20] amounted to 100 ± 1%; in [21] it was 100 ± 2%; in assay [22] it was 100 ± 2%; in [23], 102 ± 2%; in assay [24], 100 ± 2%; in [25], 101 ± 1%.

Source of the values: article PMC5303546 (Biochemical Pharmacology, 2017).
